In patent US20260265370A1 (SUZHOU TRANSCENTA THERAPEUTICS, published 2026):

Biological target: T1, human PD-L1 (human, UniProt Q9NZQ7 19-290)
T1 construct: whole, on cells; Endogenous protein in FFPE tumour sections; also called PD-ligand 1
Test: IHC on FFPE GC-02-0007 PDX tumour sections, Leica BOND III, membrane staining
Method: PD-L1 expression status was also assessed to better understand the immune modulation pre- and post Hu18B10-HaLa treatment in GC-02-0007 PDX tumor samples. Immunohistochemistry (IHC) was performed on these 4% neutral buffered formalin fixed paraffin-embedded (FFPE) tumor sections using commercially available Rabbit anti-human PD-L1 monoclonal antibodies (SP263). After deparaffinization and rehydration, all slides were proceeded to antigen retrieval in BOND Epitope Retrieval Solution 2 (Leica, AR9640) for 30 minutes at 97-99° C. Subsequently quenched, blocked with peroxidase inhibitor and incubated with appropriately diluted SP263 (0.2 ug/mL) antibodies for 30 minutes at room temperature (RT). Antibody binding was visualized with BOND Polymer Detection (Leica, DS9800) for 8 minutes on auto-staining Leica BOND III. Sections were finally counterstained with Hematoxylin and mounted with permanent mounting medium.

T1 sequence (Q9NZQ7 19-290): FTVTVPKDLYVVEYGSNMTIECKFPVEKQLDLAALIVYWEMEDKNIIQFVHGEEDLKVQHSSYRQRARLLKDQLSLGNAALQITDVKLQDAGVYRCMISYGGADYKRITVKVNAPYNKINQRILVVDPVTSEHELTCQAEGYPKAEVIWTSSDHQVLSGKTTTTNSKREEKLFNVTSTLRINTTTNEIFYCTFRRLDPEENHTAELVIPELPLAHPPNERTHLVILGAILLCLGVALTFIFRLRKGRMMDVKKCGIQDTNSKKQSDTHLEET

B1: Rabbit anti-human PD-L1 monoclonal antibody SP263 (antibody, V domains shown)
VH: QSLEESGGRLVTPGTPLTLTCTASGFSLSNHAISWVRQAPGKGLEWIGTINSDTHTYYATWPKGRFTISKTSSTTVDLKMTSPTTEDTATYFCARRIFSSSNIWGPGTLVTVSS
VL: AIVMTQTSSPVSAVVGGTVAINCQASQSIYNNNWLSWFQQKPGQPPKLLIYLASTLASGVPSRFKGSGSGTQFTLTISDVVCDDAATYYCIGGESSNNDGIAFGGGTEVVVK
notes: Commercially available rabbit monoclonal antibody; also called anti-PD-L1 diagnostic antibody SP263
B1: binds.
